The source of these data is patent publication US20140227280A1 (CENTRE NATIONAL DE LA RECHERCHE SCIENTIFIQUE, published 2014).

B1: mouse MCM8 protein (other)
chain: MSGAYRGRGFGRGRFQSWKRGRGGGNFSGRWRERENRVDLNEASGKHASAQASQPLLQQSTLDQFIPYKGWKLYFSEVYSNNSPFIEKIQAFEKFFTRHIDLYDKDEIERKGSILVDFKELTKADEITNLIPDIENALRDAPEKTLACMGLAIHQVLTKDLERHAAELQAQEGLSNGGETMVNVPHIYARVYNYEPLTHLKNIRATCYGKYISIRGTVVRVSNIKPLCTNMAFQCAACGEIQSFPLPDGKYTLPTKCPVPACRGRSFAPLRSSPLTVTLDWQLIKIQELMSDAQREAGRIPRTIECELVHDLVDSCVPGDTVTVTGIVKVSNSEEGSRNKNDKCMFLLYIEANSVSNSKGPKAQTAEDGCKHGTLMEFSLKDLYAIREIQAEENLLKLVVNSLCPVIFGHELVKAGLTLALFGGSQKYADDKNRIPIRGDPHVLIVGDPGLGKSQMLQAACNVAPRGVYVCGNTTTSSGLTVTLSKDSSSGDFALEAGALVLGDQGICGIDEFDKMGNQHQALLEAMEQQSISLAKAGVVCSLPARTSIVAAANPVGGHYNKARTVSENLKMGSALLSRFDLVFILLDTPNEQHDHLLSEHVIAIRAGKQKAVSSATVTRVLSQDSNTSVLEVVSEKPLSERLKVAPGEQTDPIPHQLLRKYIGYARQYVHPRLSTDAAQALQDFYLELRKQSQRVGSSPITTRQLESLIRLTEARARLELREEATREDAEDIIEIMKHSMLGTYSDEFGNLDFERSQHGSGMSNRSTAKRFISALNSIAERTYNNIFQYHQLRQIAKELNIQVADFENFIGSLNDQGYLLKKGPKIYQLQTM
notes: Endogenous protein in mouse testes extracts and MEF cell extracts

One experiment deals with T1, MCM2 (mouse, UniProt P97310 2-904).
T1 construct: Detected by western blot (sc-9839) in the immunoprecipitates from mouse testes extracts; also called member of the MCM2-7 complex
T1 sequence (P97310 2-904 limits assumed): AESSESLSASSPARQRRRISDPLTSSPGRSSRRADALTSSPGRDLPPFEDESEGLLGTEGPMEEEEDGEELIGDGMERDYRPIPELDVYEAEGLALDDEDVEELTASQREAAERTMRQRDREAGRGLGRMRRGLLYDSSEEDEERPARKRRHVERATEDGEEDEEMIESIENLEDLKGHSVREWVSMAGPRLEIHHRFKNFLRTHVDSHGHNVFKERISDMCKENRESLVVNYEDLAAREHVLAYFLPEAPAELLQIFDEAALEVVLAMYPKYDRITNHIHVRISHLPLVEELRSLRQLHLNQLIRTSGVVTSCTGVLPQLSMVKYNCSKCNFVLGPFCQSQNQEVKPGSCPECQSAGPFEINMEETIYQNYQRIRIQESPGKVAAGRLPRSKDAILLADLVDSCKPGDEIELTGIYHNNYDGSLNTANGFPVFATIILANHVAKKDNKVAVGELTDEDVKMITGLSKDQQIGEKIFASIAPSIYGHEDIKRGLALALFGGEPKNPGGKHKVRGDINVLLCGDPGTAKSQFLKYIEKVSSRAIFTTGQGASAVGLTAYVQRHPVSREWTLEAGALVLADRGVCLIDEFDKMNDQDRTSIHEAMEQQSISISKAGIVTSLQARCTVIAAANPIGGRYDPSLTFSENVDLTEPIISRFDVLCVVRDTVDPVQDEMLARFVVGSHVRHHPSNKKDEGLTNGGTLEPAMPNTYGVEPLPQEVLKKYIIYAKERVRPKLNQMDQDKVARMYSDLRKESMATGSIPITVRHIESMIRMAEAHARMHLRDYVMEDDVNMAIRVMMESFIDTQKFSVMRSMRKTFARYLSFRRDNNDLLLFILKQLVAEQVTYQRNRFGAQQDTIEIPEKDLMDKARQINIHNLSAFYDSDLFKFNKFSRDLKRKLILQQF
Put plainly: co-immunoprecipitation from mouse testes extracts, western blot (FIG. 18A). From the text: (§1) FIG. 18A represents immunoprecipitations of MCM8 (IP anti-MCM8; lane C) and MCM9 (IP anti-MCM9; lane D) from testes extracts blotted against MCM9 (panel 1), MCM8 (panel 2), MCM2 (panel 3) and MCM5 (panel 4). To normalize the loading, IgGs of each IP are also shown (panel 5).
In general terms: A western blot detects proteins with antibodies after separation by electrophoresis.

The experiment “mouse MCM8 protein” addresses B1. The experiment is described as above.
Source text: as §1

For B1, the binding result in the experiment with MCM2 is “no binding”.

B2: MCM5 (other, mouse, UniProt P49718 2-734, looked up)
chain: SGFDDPGIFYSDSFGGDPGAEEGQARKSQLQRRFKEFLRQYRVGTDRTGFTFKYRDELKRHYNLGEYWIEVEMEDLASFDEELADHLHKQPAEHLQLLEEAAKEVADEVTRPRPAGDELLQDIQVMLKSDASPSSIRILKSDMMSHLVKIPGIIISASAVRAKATRISIQCRSCHNTLTNIAMRPGLEGYALPRKCNMDQAGRPKCPLDPYFIMPDKCKCVDFQTLKLQELPDAVPHGEMPRHMQLYCDRYLCDKVVPGNRVTIMGIYSIKKFGLNPSKGRDRVGVGIRSSYIRVLGIQVDTDGSGRSFAGSVSPQEEEEFRRLAALPNIYELISKSISPSIFGGMDMKKAIACLLFGGSRKRLPDGLTRRGDINLLMLGDPGTAKSQLLKFVEKCSPIGVYTSGKGSSAAGLTASVIRDPSSRNFIMEGGAMVLADGGVVCIDEFDKMREDDRVAIHEAMEQQTISIAKAGITTTLNSRCSVLAAANSVFGRWDETKGEDNIDFMPTILSRFDMIFIVKDEHNEERDMMLAKHVMTLHVSALTQTQAVEGEIDLAKMKKFIAYCRARCGPRLSAEAAEKLKNRYIIMRSGARQHERDSDRRSSIPITVRQLEAIVRIAEALSKMKLQPFATEADVEEALRLFQVSTLDAALSGNLSGVEGFTTQEDQEMLSRIEKQLKRRFAIGSQVSEHSIVQDFTKQKYPEHAIRKVLQLMLRRGEIQHRMQRKVLYRLK
notes: Detected by western blot (sc-22780) in the immunoprecipitates from mouse testes extracts; also called member of the MCM2-7 complex
With B2, in the experiment with mouse MCM8 protein, the binding result is recorded as “no binding”.
